According to article PMC11118528 (bioRxiv, 2024):

Columns and labels:
Rvb2-R350A = Rvb2-R350A (S. cerevisiae, UniProt Q12464 1-471, R350A); assay: SEC
Rvb2 = Rvb2 (S. cerevisiae, UniProt Q12464 1-471); assay: SEC
Sequence of Rvb2 (Q12464 whole entry): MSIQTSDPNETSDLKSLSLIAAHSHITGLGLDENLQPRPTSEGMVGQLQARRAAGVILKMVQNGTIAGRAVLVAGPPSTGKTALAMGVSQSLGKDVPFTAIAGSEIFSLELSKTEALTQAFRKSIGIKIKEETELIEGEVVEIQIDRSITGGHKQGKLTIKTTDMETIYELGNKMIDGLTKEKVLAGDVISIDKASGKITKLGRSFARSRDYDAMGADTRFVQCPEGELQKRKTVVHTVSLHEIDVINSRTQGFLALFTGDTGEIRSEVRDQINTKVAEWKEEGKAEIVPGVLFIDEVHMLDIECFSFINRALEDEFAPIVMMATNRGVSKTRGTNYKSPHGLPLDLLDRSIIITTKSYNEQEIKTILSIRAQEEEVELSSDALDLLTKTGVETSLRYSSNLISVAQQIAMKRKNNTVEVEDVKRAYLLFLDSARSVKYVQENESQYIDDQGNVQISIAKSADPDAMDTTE

Sequence of Rvb2-R350A (Q12464 whole entry R350A): as the sequence (Q12464 whole entry) above, with R350A counted along it

| Binder | binding result (Rvb2-R350A) | binding result (Rvb2) |
| --- | --- | --- |
| Rvb1 (enzyme) MVAISEVKENPGVNSSNSGAVTRTAAHTHIKGLGLDESGVAKRVEGGFVGQIEAREACGVIVDLIKAKKMSGRAILLAGGPSTGKTALALAISQELGPKVPFCPLVGSELYSVEVKKTETLMENFRRAIGLRIKETKEVYEGEVTELTPEDAENPLGGYGKTISHVIVGLKSAKGTKTLRLDPTIYESIQREKVSIGDVIYIEANTGAVKRVGRSDAYATEFDLETEEYVPLPKGEVHKKKEIVQDVTLHDLDVANARPQGGQDVISMMGQLLKPKKTEITEKLRQEVNKVVAKYIDQGVAELIPGVLFIDEVNMLDIEIFTYLNKALESNIAPVVVLASNRGMTTVRGTEDVISPHGVPPDLIDRLLIVRTLPYDKDEIRTIIERRATVERLQVESSALDLLATMGTETSLRYALQLLAPCGILAQTSNRKEIVVNDVNEAKLLFLDAKRSTKILETSANYL | binds | binds |
| Rvb1-R366A (enzyme) MVAISEVKENPGVNSSNSGAVTRTAAHTHIKGLGLDESGVAKRVEGGFVGQIEAREACGVIVDLIKAKKMSGRAILLAGGPSTGKTALALAISQELGPKVPFCPLVGSELYSVEVKKTETLMENFRRAIGLRIKETKEVYEGEVTELTPEDAENPLGGYGKTISHVIVGLKSAKGTKTLRLDPTIYESIQREKVSIGDVIYIEANTGAVKRVGRSDAYATEFDLETEEYVPLPKGEVHKKKEIVQDVTLHDLDVANARPQGGQDVISMMGQLLKPKKTEITEKLRQEVNKVVAKYIDQGVAELIPGVLFIDEVNMLDIEIFTYLNKALESNIAPVVVLASNRGMTTVRGTEDVISPHGVPPDLIDALLIVRTLPYDKDEIRTIIERRATVERLQVESSALDLLATMGTETSLRYALQLLAPCGILAQTSNRKEIVVNDVNEAKLLFLDAKRSTKILETSANYL | binds | binds |
